# Results published in article PMC4289673 (Proteins, 2014).
# B1: R47A hACMSD (enzyme)
# chain: not shown
# Target: the molecule itself
# Experiment: crystal structure
protein,measurement,value
B1,binding result,binds
